# According to IntAct's records for PubMed 32296183:
# B1: Ceroid-lipofuscinosis neuronal protein 6 (Homo sapiens), Q9NWW5 (parent)
# chain: MEATRRRQHLGATGGPGAQLGASFLQARHGSVSADEAARTAPFHLDLWFYFTLQNWVLDFGRPIAMLVFPLEWFPLNKPSVGDYFHMAYNVITPFLLLKLIERSPRTLPRSITYVSIIIFIMGASIHLVGDSVNHRLLFSGYQHHLSVRENPIIKNLKPETLIDSFELLYYYDEYLGHCMWYIPFFLILFMYFSGCFTASKAESLIPGPALLLVAPSGLYYWYLVTEGQIFILFIFTFFAMLALVLHQKRKRLFLDSNGLFLFSSFALTLLLVALWVAWLWNDPVLRKKYPGVIYVPEPWAFYTLHVSSRH
# partner: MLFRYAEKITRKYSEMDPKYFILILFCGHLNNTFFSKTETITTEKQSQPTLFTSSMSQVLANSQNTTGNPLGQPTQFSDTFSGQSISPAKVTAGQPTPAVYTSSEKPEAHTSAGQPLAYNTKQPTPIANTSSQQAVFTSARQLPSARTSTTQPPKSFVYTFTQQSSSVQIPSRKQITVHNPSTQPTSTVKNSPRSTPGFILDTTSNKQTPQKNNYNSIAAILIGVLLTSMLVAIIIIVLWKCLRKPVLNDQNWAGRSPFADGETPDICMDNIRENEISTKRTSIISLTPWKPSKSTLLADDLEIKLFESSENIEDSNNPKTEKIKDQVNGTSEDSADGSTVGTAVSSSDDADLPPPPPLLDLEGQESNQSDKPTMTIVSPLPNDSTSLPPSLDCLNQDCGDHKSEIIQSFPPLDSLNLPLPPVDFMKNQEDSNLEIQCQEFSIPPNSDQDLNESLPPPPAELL
# B2: Catenin alpha-3 (Homo sapiens), Q9UI47-2 (parent)
# chain: MSAETPITLNIDPQDLQVQTFTVEKLLEPLIIQVTTLVNCPQNPSSRKKGRSKRASVLLASVEEATWNLLDKGEKIAQEATVLKDELTASLEEVRKESEALKVSAERFTDDPCFLPKREAVVQAARALLAAVTRLLILADMIDVMCLLQHVSAFQRTFESLKNVANKSDLQKTYQKLGKELENLDYLAFKRQQDLKSPNQRDEIAGARASLKENSPLLHSICSACLEHSDVASLKASKDTVCEEIQNALNVISNASQGIQNMTTPPEPQAATLGSALDELENLIVLNPLTVTEEEIRPSLEKRLEAIISGAALLADSSCTRDLHRERIIAECNAIRQALQDLLSEYMNNAGKKERSNTLNIALDNMCKKTRDLRRQLRKAIIDHVSDSFLDTTVPLLVLIEAAKNGREKEIKEYAAIFHEHTSRLVEVANLACSMSTNEDGIKIVKIAANHLETLCPQIINAALALAARPKSQAVKNTMEMYKRTWENHIHVLTEAVDDITSIDDFLAVSGMFLFF
# partner: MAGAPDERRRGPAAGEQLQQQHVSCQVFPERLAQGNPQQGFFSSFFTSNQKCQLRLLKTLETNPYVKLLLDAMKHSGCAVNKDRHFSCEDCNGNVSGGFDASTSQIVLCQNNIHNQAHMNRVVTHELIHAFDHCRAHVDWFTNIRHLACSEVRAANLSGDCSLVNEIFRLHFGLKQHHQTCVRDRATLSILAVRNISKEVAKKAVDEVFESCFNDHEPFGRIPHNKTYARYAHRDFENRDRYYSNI
# B3: Catenin alpha-3 (Homo sapiens), Q9UI47-2 (parent)
# chain: B2 chain
# partner: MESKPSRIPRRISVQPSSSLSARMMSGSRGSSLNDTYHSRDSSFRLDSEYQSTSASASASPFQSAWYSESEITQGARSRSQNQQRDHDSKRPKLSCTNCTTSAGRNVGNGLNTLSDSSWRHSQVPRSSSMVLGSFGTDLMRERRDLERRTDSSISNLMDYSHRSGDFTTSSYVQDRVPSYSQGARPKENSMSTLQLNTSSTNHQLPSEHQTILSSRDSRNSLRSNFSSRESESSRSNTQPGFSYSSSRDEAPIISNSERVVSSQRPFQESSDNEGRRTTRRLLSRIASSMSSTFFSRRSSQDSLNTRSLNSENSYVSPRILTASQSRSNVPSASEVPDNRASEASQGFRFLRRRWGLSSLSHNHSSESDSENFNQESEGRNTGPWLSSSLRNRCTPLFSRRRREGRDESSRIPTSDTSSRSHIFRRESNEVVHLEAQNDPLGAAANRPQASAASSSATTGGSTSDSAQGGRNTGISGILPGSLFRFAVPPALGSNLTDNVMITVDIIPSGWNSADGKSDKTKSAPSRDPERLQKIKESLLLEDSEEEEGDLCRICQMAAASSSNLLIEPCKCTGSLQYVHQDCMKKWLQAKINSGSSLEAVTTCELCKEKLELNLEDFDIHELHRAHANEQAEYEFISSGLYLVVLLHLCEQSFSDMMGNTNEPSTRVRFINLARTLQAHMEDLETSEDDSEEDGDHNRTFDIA
# B4: Golgi SNAP receptor complex member 2 (Homo sapiens), O14653 (parent)
# chain: MDPLFQQTHKQVHEIQSCMGRLETADKQSVHIVENEIQASIDQIFSRLERLEILSSKEPPNKRQNARLRVDQLKYDVQHLQTALRNFQHRRHAREQQERQREELLSRTFTTNDSDTTIPMDESLQFNSSLQKVHNGMDDLILDGHNILDGLRTQRLTLKGTQKKILDIANMLGLSNTVMRLIEKRAFQDKYFMIGGMLLTCVVMFLVVQYLT
# partner: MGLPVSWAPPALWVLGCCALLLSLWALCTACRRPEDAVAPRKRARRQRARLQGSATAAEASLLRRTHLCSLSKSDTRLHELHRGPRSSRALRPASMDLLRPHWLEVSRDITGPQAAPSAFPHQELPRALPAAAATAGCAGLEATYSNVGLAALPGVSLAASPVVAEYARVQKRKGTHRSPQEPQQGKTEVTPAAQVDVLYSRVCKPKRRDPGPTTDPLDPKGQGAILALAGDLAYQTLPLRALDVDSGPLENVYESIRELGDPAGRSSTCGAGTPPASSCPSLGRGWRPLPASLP
# B5: Catenin alpha-3 (Homo sapiens), Q9UI47-2 (parent)
# chain: B2 chain
# partner: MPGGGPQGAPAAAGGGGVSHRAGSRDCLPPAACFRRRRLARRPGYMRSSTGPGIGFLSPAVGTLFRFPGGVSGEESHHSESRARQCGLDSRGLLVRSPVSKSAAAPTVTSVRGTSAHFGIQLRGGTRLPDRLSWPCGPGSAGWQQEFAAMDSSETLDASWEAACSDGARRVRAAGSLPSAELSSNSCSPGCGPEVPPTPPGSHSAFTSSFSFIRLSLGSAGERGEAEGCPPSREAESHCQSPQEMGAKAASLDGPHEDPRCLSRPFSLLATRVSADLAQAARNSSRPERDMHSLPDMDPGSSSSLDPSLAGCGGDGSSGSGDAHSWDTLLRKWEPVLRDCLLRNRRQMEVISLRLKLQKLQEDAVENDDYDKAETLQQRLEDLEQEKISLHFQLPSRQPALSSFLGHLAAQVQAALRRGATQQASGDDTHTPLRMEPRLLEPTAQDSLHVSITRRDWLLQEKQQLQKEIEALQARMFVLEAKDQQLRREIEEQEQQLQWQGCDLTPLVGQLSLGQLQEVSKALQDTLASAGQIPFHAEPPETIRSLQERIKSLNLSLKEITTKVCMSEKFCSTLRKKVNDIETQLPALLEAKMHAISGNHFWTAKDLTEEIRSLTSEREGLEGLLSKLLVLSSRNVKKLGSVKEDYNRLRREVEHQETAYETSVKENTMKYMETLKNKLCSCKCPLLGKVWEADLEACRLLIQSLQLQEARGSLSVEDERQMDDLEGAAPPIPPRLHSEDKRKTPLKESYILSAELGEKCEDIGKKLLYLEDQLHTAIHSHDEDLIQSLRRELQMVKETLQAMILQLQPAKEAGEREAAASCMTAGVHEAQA
# B6: Golgi SNAP receptor complex member 2 (Homo sapiens), O14653 (parent)
# chain: B4 chain
# partner: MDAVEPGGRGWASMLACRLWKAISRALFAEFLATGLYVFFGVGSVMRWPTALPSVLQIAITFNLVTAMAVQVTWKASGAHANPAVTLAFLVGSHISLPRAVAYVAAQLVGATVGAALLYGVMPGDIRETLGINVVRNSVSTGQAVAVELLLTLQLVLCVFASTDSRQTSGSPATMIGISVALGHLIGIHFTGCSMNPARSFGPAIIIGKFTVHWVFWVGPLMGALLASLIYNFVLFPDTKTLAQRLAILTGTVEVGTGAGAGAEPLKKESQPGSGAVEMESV
# B7: Golgi SNAP receptor complex member 2 (Homo sapiens), O14653 (parent)
# chain: B4 chain
# partner: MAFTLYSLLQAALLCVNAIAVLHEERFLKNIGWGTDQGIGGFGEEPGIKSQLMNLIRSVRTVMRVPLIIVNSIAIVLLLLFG
# B8: Golgi SNAP receptor complex member 2 (Homo sapiens), O14653 (parent)
# chain: B4 chain
# partner: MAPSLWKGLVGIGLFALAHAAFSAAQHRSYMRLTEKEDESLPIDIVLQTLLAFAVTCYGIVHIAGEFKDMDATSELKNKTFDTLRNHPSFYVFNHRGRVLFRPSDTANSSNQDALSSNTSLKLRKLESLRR
# B9: Golgi SNAP receptor complex member 2 (Homo sapiens), O14653 (parent)
# chain: B4 chain
# partner: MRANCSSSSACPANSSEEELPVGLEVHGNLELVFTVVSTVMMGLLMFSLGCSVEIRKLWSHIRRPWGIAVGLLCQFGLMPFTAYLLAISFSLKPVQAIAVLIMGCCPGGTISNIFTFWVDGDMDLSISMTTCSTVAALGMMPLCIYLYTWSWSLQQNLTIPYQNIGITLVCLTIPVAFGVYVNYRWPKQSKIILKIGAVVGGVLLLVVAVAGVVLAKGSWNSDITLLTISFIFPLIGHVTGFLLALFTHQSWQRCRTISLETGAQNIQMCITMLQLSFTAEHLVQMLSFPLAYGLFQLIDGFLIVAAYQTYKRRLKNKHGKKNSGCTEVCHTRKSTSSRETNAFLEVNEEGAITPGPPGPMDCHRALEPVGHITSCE
# B10: Golgi SNAP receptor complex member 2 (Homo sapiens), O14653 (parent)
# chain: B4 chain
# partner: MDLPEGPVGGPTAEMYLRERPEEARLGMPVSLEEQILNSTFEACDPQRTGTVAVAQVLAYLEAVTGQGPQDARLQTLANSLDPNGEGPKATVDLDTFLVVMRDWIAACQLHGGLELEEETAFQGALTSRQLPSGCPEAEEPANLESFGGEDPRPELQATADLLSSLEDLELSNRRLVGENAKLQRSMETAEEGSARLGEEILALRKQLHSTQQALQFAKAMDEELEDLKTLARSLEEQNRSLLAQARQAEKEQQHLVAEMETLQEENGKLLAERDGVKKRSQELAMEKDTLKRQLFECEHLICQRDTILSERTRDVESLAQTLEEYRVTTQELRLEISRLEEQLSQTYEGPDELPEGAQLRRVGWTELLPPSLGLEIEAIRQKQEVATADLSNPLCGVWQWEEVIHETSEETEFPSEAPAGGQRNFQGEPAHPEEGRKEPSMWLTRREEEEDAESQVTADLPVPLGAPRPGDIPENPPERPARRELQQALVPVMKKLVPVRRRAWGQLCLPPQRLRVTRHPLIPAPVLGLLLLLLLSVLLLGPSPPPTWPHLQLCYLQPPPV
# Variants of: B1
# Settings: with EVI2B
row,effect of a mutation on the interaction,Variant
1,with no effect,R6T

# Variants of: B2
# Settings: with atp23_human ATP23, Q9Y6H3
row,effect of a mutation on the interaction,Variant
1,disrupting interaction strength,V94D

# Variants of: B3
# Settings: with marh7_human MARCHF7, Q9H992
row,effect of a mutation on the interaction,Variant
1,with no effect,V94D

# Variants of: B4
# Settings: with lime1_human LIME1, Q9H400
row,effect of a mutation on the interaction,Variant
1,disrupting interaction strength,G144W

# Variants of: B5
# Settings: with DISC1, Q9NRI5-2
row,effect of a mutation on the interaction,Variant
1,disrupting interaction strength,V94D

# Variants of: B6
# Settings: with aqp6_human AQP6, Q13520
row,effect of a mutation on the interaction,Variant
1,with no effect,G144W

# Variants of: B7
# Settings: with ir3ip_human IER3IP1, Q9Y5U9
row,effect of a mutation on the interaction,Variant
1,with no effect,G144W

# Variants of: B8
# Settings: with emc5_human MMGT1, Q8N4V1
row,effect of a mutation on the interaction,Variant
1,with no effect,G144W

# Variants of: B9
# Settings: with soat_human SLC10A6, Q3KNW5
row,effect of a mutation on the interaction,Variant
1,with no effect,G144W

# Variants of: B10
# Settings: with kash5_human KASH5, Q8N6L0
row,effect of a mutation on the interaction,Variant
1,with no effect,G144W
